The text below walks through data of the RNAGym collection of RNA variant scans (doi:10.7554/elife.80360).

B1: HDV Ribozyme (parent)
chain: GGCCGGCAUGGUCCCAGCCUCCUCGCUGGCGCCGGCUGGGCAACAUUCCGAGGGGACCGUCCCCUCGGUAAUGGCGAAUGGGACCCA

In this data set the parent is B1. In words: self-cleavage, relative activity (ratio to wild type); higher = more cleavage; co-transcriptional.
For GGCCGGCAUGGUCCCAGCCUCCUCGCUGGCGCCGGCUGGGCAACCUUCCGAGGGGACCGUCCCCUCGGUAAUGUCGAAUGGGACCCA [A45C G74U], the self-cleavage was determined as 0.369.

Turning to GGCCGGCAUGGUCCCAGCCUCCUCGCUGGCGCCGGCUGGGCAACAUUCCGAGGGGACCGUCCCCUCGGUAAUCGAGAAUGGGACCCA [G73C C75A], the self-cleavage was 0.173.

As for GCCCGGCAUGGACCCAGCCUCCUCGCUGGCGCCGGCUGGGCAACAUUCCGAGGGGACCGUCCCCUCGGUAAUGGCGAAUGGGACCCA [G2C U12A], the self-cleavage was 0.17.

For GGCCGGCAUGGUCCCAGCCUCCUCGCUGGCGCCGGCUGGGCAACAUUCCGAGGGGACCGUCCCCUAGGAAAUGGCGAAUGGGACCCA [C66A U69A], the self-cleavage came to 1.16.

For GGCCGGCAUGUUCCCAGCCUCCUCGCUGGCGCCGGCUGGGCAACAUUCCGAGGGGACCGUCCCCUCCGUAAUGGCGAAUGGGACCCA [G11U G67C], the self-cleavage is 0.262.

Turning to GGCCGGCAUGGUCCCAGCCUCCUCGCUGGCGCCGGCUGGGCAACAUUGCGAGGGGACCGUCCCCUCGGUAAUGGCGAAUGGGACCUA [C48G C86U], the self-cleavage was found to be 0.932.

As for GGCCAGCAUGGUCCCAGCCUCCUCGCUGGCGCCGGCUGGGCAACCUUCCGAGGGGACCGUCCCCUCGGUAAUGGCGAAUGGGACCCA [G5A A45C], the self-cleavage was found to be 0.0462.

As to GGCCGGCAUGGUCCCAGGCUCCUCGCUGGCGCCGGCUAGGCAACAUUCCGAGGGGACCGUCCCCUCGGUAAUGGCGAAUGGGACCCA [C18G G38A], the self-cleavage was determined as 0.0978.

On to GGCCGGCAUGGUCCCAGCCUCCUCGCUGGCGCCGGCUGGGCGACAUUCCGAGGGGACCGUCCCCUCGGUAAUUGCGAAUGGGACCCA [A42G G73U], for which the self-cleavage stood at 0.147.

Turning to GGCCGGCAUGGUCCCAGCCUCCUCGCUGGCGCCGGCUGGGCAACAUUCCGUGGGGACCGUCCCAUCGGUAAUGGCGAAUGGGACCCA [A51U C64A], the self-cleavage was found to be 0.845.

With GGCCGGCAUGGUCCCAGCCUCCGCGCUGGCUCCGGCUGGGCAACAUUCCGAGGGGACCGUCCCCUCGGUAAUGGCGAAUGGGACCCA [U23G G31U], the self-cleavage stood at 0.0639.

For GGCCGGCAUGGUCCCAGCCUCCUCGCUGGCGCCGGCUUGGCAACAUUCCGAGGGGACCGUCCCCUCGGUAAUGGCGAAUGGCACCCA [G38U G82C], the self-cleavage turned out to be 0.218.

On to GGCCGGCAUGGUCCCAGCCUCCUCGCUGGCGCCGGAUGGGCAACAUUCCGAGGGGACCGUACCCUCGGUAAUGGCGAAUGGGACCCA [C36A C61A], for which the self-cleavage was determined as 0.0536.

As for GGCCGGCAUGGUGCCAGCCUCCUCGCUGGCGCCGGCUGGGCAACAUUCCGAGGGGACCGUCCCCUCGGUAAUGGCGAAUGAGACCCA [C13G G81A], the self-cleavage came to 0.0426.

GGCCGGCAUGGUCCCAGCCUCCUCGCUGCCGCCGGCUGGGCAACAUUCGGAGGGGACCGUCCCCUCGGUAAUGGCGAAUGGGACCCA [G29C C49G]: the self-cleavage amounted to 0.

GGCCGGCAUGGUCCCAGCCUCAUCGCUGGCGCCGGCUGGGCAACAUUCCGAGGUGACCGUCCCCUCGGUAAUGGCGAAUGGGACCCA [C22A G54U]: the self-cleavage came out at 0.317.

On to GGCCGGCAUGGUCCCAGCCUCCUCGCUGGCGCCGGCUGGGCAACAUUCCGAGGGGACCGUCCCCUCGCUAAUGGCGAAUGGGACCAA [G68C C86A], for which the self-cleavage turned out to be 1.1.

Regarding GGCCGGCAUGGUCCCAGCCUCCUAGCUGGCGCCGGCUCGGCAACAUUCCGAGGGGACCGUCCCCUCGGUAAUGGCGAAUGGGACCCA [C24A G38C], the self-cleavage was determined as 0.199.

Consider GGCCGGCAUGGUCCCAGCCUCCUCGCUGGCGCCGGCUGGGCAACAUUCCGAGGGGACCGUCCCCUCGGUUAUGGCGAAUGGCACCCA [A70U G82C], for which the self-cleavage is 0.35.

Turning to GGCCGGCAUGGUCCCAGCCUCCUCGCUGGCGCCGGCUGGGCAAUAUUCCGAGGGGACCGUCCCCUCGGUACUGGCGAAUGGGACCCA [C44U A71C], the self-cleavage worked out at 0.851.

In the case of GGCCGGCAUGGUCCCAGCUUCCUCGCUGGCGCCGGCUGGGCAACAUUCCGAGGGGACCGUCCCCUCGGUAAUGGCGAAUGGGAGCCA [C19U C84G], the self-cleavage stood at 0.0332.

For GGCCGGCAUGGUCCCAGCCUCCUAGCUGGCGCCGGCUGGGCAACAUUCCGAGGGGACCGUCCCCUCGGUAAUGGCGAAUGGGACUCA [C24A C85U], the self-cleavage turned out to be 0.594.

For the variant GGCCGGCAUGGUCCCAGCCUCCUCGCUGGCGCCGGCUGCGCAACAUUCCGAGGCGACCGUCCCCUCGGUAAUGGCGAAUGGGACCCA [G39C G54C], the self-cleavage was found to be 0.253.

In the case of GGCCGGCAUGGUCCCAGCCUCCUCGCUGGCGCCGGCAGGGCAACAUUCCGAGGGGACCCUCCCCUCGGUAAUGGCGAAUGGGACCCA [U37A G59C], the self-cleavage was 0.224.

Turning to GGCCGGCAUGGUCCCAGCCUCCUCGCAGGCGCCGGCUGGGCAACAUUCCGAGGGGACCGUACCCUCGGUAAUGGCGAAUGGGACCCA [U27A C61A], the self-cleavage came to 0.906.

On to GGCCGGCAAGGUCCCAGCCUCCUCUCUGGCGCCGGCUGGGCAACAUUCCGAGGGGACCGUCCCCUCGGUAAUGGCGAAUGGGACCCA [U9A G25U], for which the self-cleavage was determined as 0.175.

For the variant GGCCGGCAUGGUCCCAGCCUCCUCGCUGGCGCCGGCUGGGCAACAUUCUGAGGGGACCGUCGCCUCGGUAAUGGCGAAUGGGACCCA [C49U C62G], the self-cleavage was found to be 0.665.

Consider GGCCGGCAUGGUCCCAGCCUCCUCGCUGGCGCCGGCUGGGCAACUUUCCGACGGGACCGUCCCCUCGGUAAUGGCGAAUGGGACCCA [A45U G52C], for which the self-cleavage is 0.743.

In the case of GGCCGGCAUGGUCCCAGCCUCCUCGCUGGCACCGGCUGGGCAACAUUCCGAGGGGACCGUCCCCUCGGUAAUGGUGAAUGGGACCCA [G31A C75U], the self-cleavage came out at 0.122.

Regarding GGCCGGCAUGGUCCCAGCCUCCUCGGUGGCGCCGGCUGGGCAACAUUCCGAGGGGACCGUCCCCUCGGUAAUGGCGAAUGGGACCGA [C26G C86G], the self-cleavage amounted to 0.886.

Consider GGCCGGCAUGGUCCCCGCCUCCUCGCUGGCGCCGGCUGGGCAACAUUCCGAGGGGACCGUCCCCUCGGCAAUGGCGAAUGGGACCCA [A16C U69C], for which the self-cleavage was 0.739.

Consider GGCCGGCAUGGCCCCACCCUCCUCGCUGGCGCCGGCUGGGCAACAUUCCGAGGGGACCGUCCCCUCGGUAAUGGCGAAUGGGACCCA [U12C G17C], for which the self-cleavage amounted to 0.145.
